The labels stand for the following.
B1: REXO4 (protein, UniProt Q9GZR2 1-422, looked up)
RNA exonuclease 4: MGKAKVPASKRAPSSPVAKPGPVKTLTRKKNKKKKRFWKSKAREVSKKPASGPGAVVRPPKAPEDFSQNWKALQEWLLKQKSQAPEKPLVISQMGSKKKPKIIQQNKKETSPQVKGEEMPAGKDQEASRGSVPSGSKMDRRAPVPRTKASGTEHNKKGTKERTNGDIVPERGDIEHKKRKAKEAAPAPPTEEDIWFDDVDPADIEAAIGPEAAKIARKQLGQSEGSVSLSLVKEQAFGGLTRALALDCEMVGVGPKGEESMAARVSIVNQYGKCVYDKYVKPTEPVTDYRTAVSGIRPENLKQGEELEVVQKEVAEMLKGRILVGHALHNDLKVLFLDHPKKKIRDTQKYKPFKSQVKSGRPSLRLLSEKILGLQVQQAEHCSIQDAQAAMRLYVMVKKEWESMARDRRPLLTAPDHCSDDA
B2: RFX1 (protein, UniProt P22670 1-979, looked up)
MHC class II regulatory …: MATQAYTELQAAPPPSQPPQAPPQAQPQPPPPPPPAAPQPPQPPTAAATPQPQYVTELQSPQPQAQPPGGQKQYVTELPAVPAPSQPTGAPTPSPAPQQYIVVTVSEGAMRASETVSEASPGSTASQTGVPTQVVQQVQGTQQRLLVQTSVQAKPGHVSPLQLTNIQVPQQALPTQRLVVQSAAPGSKGGQVSLTVHGTQQVHSPPEQSPVQANSSSSKTAGAPTGTVPQQLQVHGVQQSVPVTQERSVVQATPQAPKPGPVQPLTVQGLQPVHVAQEVQQLQQVPVPHVYSSQVQYVEGGDASYTASAIRSSTYSYPETPLYTQTASTSYYEAAGTATQVSTPATSQAVASSGSMPMYVSGSQVVASSTSTGAGASNSSGGGGSGGGGGGGGGGGGGGSGSTGGGGSGAGTYVIQGGYMLGSASQSYSHTTRASPATVQWLLDNYETAEGVSLPRSTLYCHYLLHCQEQKLEPVNAASFGKLIRSVFMGLRTRRLGTRGNSKYHYYGLRIKASSPLLRLMEDQQHMAMRGQPFSQKQRLKPIQKMEGMTNGVAVGQQPSTGLSDISAQVQQYQQFLDASRSLPDFTELDLQGKVLPEGVGPGDIKAFQVLYREHCEAIVDVMVNLQFTLVETLWKTFWRYNLSQPSEAPPLAVHDEAEKRLPKAILVLLSKFEPVLQWTKHCDNVLYQGLVEILIPDVLRPIPSALTQAIRNFAKSLESWLTHAMVNIPEEMLRVKVAAAGAFAQTLRRYTSLNHLAQAARAVLQNTAQINQMLSDLNRVDFANVQEQASWVCRCEDRVVQRLEQDFKVTLQQQNSLEQWAAWLDGVVSQVLKPYQGSAGFPKAAKLFLLKWSFYSSMVIRDLTLRSAASFGSFHLIRLLYDEYMYYLIEHRVAQAKGETPIAVMGEFANLATSLNPLDPDKDEEEEEEEESEDELPQDISLAAGGESPALGPETLEPPAKLARTDARGLFVQALPSS
B3: RBBP8 (protein, UniProt Q99708 1-897, looked up)
DNA endonuclease RBBP8: MNISGSSCGSPNSADTSSDFKDLWTKLKECHDREVQGLQVKVTKLKQERILDAQRLEEFFTKNQQLREQQKVLHETIKVLEDRLRAGLCDRCAVTEEHMRKKQQEFENIRQQNLKLITELMNERNTLQEENKKLSEQLQQKIENDQQHQAAELECEEDVIPDSPITAFSFSGVNRLRRKENPHVRYIEQTHTKLEHSVCANEMRKVSKSSTHPQHNPNENEILVADTYDQSQSPMAKAHGTSSYTPDKSSFNLATVVAETLGLGVQEESETQGPMSPLGDELYHCLEGNHKKQPFEESTRNTEDSLRFSDSTSKTPPQEELPTRVSSPVFGATSSIKSGLDLNTSLSPSLLQPGKKKHLKTLPFSNTCISRLEKTRSKSEDSALFTHHSLGSEVNKIIIQSSNKQILINKNISESLGEQNRTEYGKDSNTDKHLEPLKSLGGRTSKRKKTEEESEHEVSCPQASFDKENAFPFPMDNQFSMNGDCVMDKPLDLSDRFSAIQRQEKSQGSETSKNKFRQVTLYEALKTIPKGFSSSRKASDGNCTLPKDSPGEPCSQECIILQPLNKCSPDNKPSLQIKEENAVFKIPLRPRESLETENVLDDIKSAGSHEPIKIQTRSDHGGCELASVLQLNPCRTGKIKSLQNNQDVSFENIQWSIDPGADLSQYKMDVTVIDTKDGSQSKLGGETVDMDCTLVSETVLLKMKKQEQKGEKSSNEERKMNDSLEDMFDRTTHEEYESCLADSFSQAADEEEELSTATKKLHTHGDKQDKVKQKAFVEPYFKGDERETSLQNFPHIEVVRKKEERRKLLGHTCKECEIYYADMPAEEREKKLASCSRHRFRYIPPNTPENFWEVGFPSTQTCMERGYIKEDLDPCPRPKRRQPYNAIFSPKGKEQKT
B4: RFC1 (protein, UniProt P35251 1-1148, looked up)
Replication factor C subunit 1: MDIRKFFGVIPSGKKLVSETVKKNEKTKSDEETLKAKKGIKEIKVNSSRKEDDFKQKQPSKKKRIIYDSDSESEETLQVKNAKKPPEKLPVSSKPGKISRQDPVTYISETDEEDDFMCKKAASKSKENGRSTNSHLGTSNMKKNEENTKTKNKPLSPIKLTPTSVLDYFGTGSVQRSNKKMVASKRKELSQNTDESGLNDEAIAKQLQLDEDAELERQLHEDEEFARTLAMLDEEPKTKKARKDTEAGETFSSVQANLSKAEKHKYPHKVKTAQVSDERKSYSPRKQSKYESSKESQQHSKSSADKIGEVSSPKASSKLAIMKRKEESSYKEIEPVASKRKENAIKLKGETKTPKKTKSSPAKKESVSPEDSEKKRTNYQAYRSYLNREGPKALGSKEIPKGAENCLEGLIFVITGVLESIERDEAKSLIERYGGKVTGNVSKKTNYLVMGRDSGQSKSDKAAALGTKIIDEDGLLNLIRTMPGKKSKYEIAVETEMKKESKLERTPQKNVQGKRKISPSKKESESKKSRPTSKRDSLAKTIKKETDVFWKSLDFKEQVAEETSGDSKARNLADDSSENKVENLLWVDKYKPTSLKTIIGQQGDQSCANKLLRWLRNWQKSSSEDKKHAAKFGKFSGKDDGSSFKAALLSGPPGVGKTTTASLVCQELGYSYVELNASDTRSKSSLKAIVAESLNNTSIKGFYSNGAASSVSTKHALIMDEVDGMAGNEDRGGIQELIGLIKHTKIPIICMCNDRNHPKIRSLVHYCFDLRFQRPRVEQIKGAMMSIAFKEGLKIPPPAMNEIILGANQDIRQVLHNLSMWCARSKALTYDQAKADSHRAKKDIKMGPFDVARKVFAAGEETAHMSLVDKSDLFFHDYSIAPLFVQENYIHVKPVAAGGDMKKHLMLLSRAADSICDGDLVDSQIRSKQNWSLLPAQAIYASVLPGELMRGYMTQFPTFPSWLGKHSSTGKHDRIVQDLALHMSLRTYSSKRTVNMDYLSLLRDALVQPLTSQGVDGVQDVVALMDTYYLMKEDFENIMEISSWGGKPSPFSKLDPKVKAAFTRAYNKEAHLTPYSLQAIKASRHSTSPSLDSEYNEELNEDDSQSDEKDQDAIETDAMIKKKTKSSKPSKPEKDKEPRKGKGKSSKK
B5: BARHL2 (protein, UniProt Q9NY43 1-387, looked up)
BarH-like 2 homeobox protein: MTMEGASGSSFGIDTILSSASSGSPGMMNGDFRPLGEARTADFRSQATPSPCSEIDTVGTAPSSPISVTMEPPEPHLVADATQHHHHLHHSQQPPPPAAAPTQSLQPLPQQQQPLPPQQPPPPPPQQLGSAASAPRTSTSSFLIKDILGDSKPLAACAPYSTSVSSPHHTPKQESNAVHESFRPKLEQEDSKTKLDKREDSQSDIKCHGTKEEGDREITSSRESPPVRAKKPRKARTAFSDHQLNQLERSFERQKYLSVQDRMDLAAALNLTDTQVKTWYQNRRTKWKRQTAVGLELLAEAGNYSALQRMFPSPYFYHPSLLGSMDSTTAAAAAAAMYSSMYRTPPAPHPQLQRPLVPRVLIHGLGPGGQPALNPLSSPIPGTPHPR
B6: BATF2 (protein, UniProt Q8N1L9 1-274, looked up)
Basic leucine zipper …: MHLCGGNGLLTQTDPKEQQRQLKKQKNRAAAQRSRQKHTDKADALHQQHESLEKDNLALRKEIQSLQAELAWWSRTLHVHERLCPMDCASCSAPGLLGCWDQAEGLLGPGPQGQHGCREQLELFQTPGSCYPAQPLSPGPQPHDSPSLLQCPLPSLSLGPAVVAEPPVQLSPSPLLFASHTGSSLQGSSSKLSALQPSLTAQTAPPQPLELEHPTRGKLGSSPDNPSSALGLARLQSREHKPALSAATWQGLVVDPSPHPLLAFPLLSSAQVHF
B7: RARB (protein, UniProt P10826 1-455, looked up)
Retinoic acid receptor beta: MTTSGHACPVPAVNGHMTHYPATPYPLLFPPVIGGLSLPPLHGLHGHPPPSGCSTPSPATIETQSTSSEELVPSPPSPLPPPRVYKPCFVCQDKSSGYHYGVSACEGCKGFFRRSIQKNMIYTCHRDKNCVINKVTRNRCQYCRLQKCFEVGMSKESVRNDRNKKKKETSKQECTESYEMTAELDDLTEKIRKAHQETFPSLCQLGKYTTNSSADHRVRLDLGLWDKFSELATKCIIKIVEFAKRLPGFTGLTIADQITLLKAACLDILILRICTRYTPEQDTMTFSDGLTLNRTQMHNAGFGPLTDLVFTFANQLLPLEMDDTETGLLSAICLICGDRQDLEEPTKVDKLQEPLLEALKIYIRKRRPSKPHMFPKILMKITDLRSISAKGAERVITLKMEIPGSMPPLIQEMLENSEGHEPLTPSSSGNTAEHSPSISPSSVENSGVSQSPLVQ
B8: RBM14 (protein, UniProt Q96PK6 1-669, looked up)
RNA-binding protein 14: MKIFVGNVDGADTTPEELAALFAPYGTVMSCAVMKQFAFVHMRENAGALRAIEALHGHELRPGRALVVEMSRPRPLNTWKIFVGNVSAACTSQELRSLFERRGRVIECDVVKDYAFVHMEKEADAKAAIAQLNGKEVKGKRINVELSTKGQKKGPGLAVQSGDKTKKPGAGDTAFPGTGGFSATFDYQQAFGNSTGGFDGQARQPTPPFFGRDRSPLRRSPPRASYVAPLTAQPATYRAQPSVSLGAAYRAQPSASLGVGYRTQPMTAQAASYRAQPSVSLGAPYRGQLASPSSQSAAASSLGPYGGAQPSASALSSYGGQAAAASSLNSYGAQGSSLASYGNQPSSYGAQAASSYGVRAAASSYNTQGAASSLGSYGAQAASYGAQSAASSLAYGAQAASYNAQPSASYNAQSAPYAAQQAASYSSQPAAYVAQPATAAAYASQPAAYAAQATTPMAGSYGAQPVVQTQLNSYGAQASMGLSGSYGAQSAAAATGSYGAAAAYGAQPSATLAAPYRTQSSASLAASYAAQQHPQAAASYRGQPGNAYDGAGQPSAAYLSMSQGAVANANSTPPPYERTRLSPPRASYDDPYKKAVAMSKRYGSDRRLAELSDYRRLSESQLSFRRSPTKSSLDYRRLPDAHSDYARYSGSYNDYLRAAQMHSGYQRRM

From publication PMC11574045, “A cofactor-induced repressive type of transcription factor condensation can be induced by synthetic peptides to suppress tumorigenesis” (The EMBO Journal, 2024) come the findings set out here.

This assay has as its system HEK293FT cells transfected with TF library. Kind of assay: Screening of TF condensates based on fluorescent puncta. It is filed as cell-based. Particulars: Figure 1B numerical data; TF library screen, one value per transcriptional factor. Put shortly: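 Cells were seeded onto plasmid/PEI-loaded wells (plasmid 1.6 μg/ml final) and grown 60 h. Medium with or without glucose followed for 12 h. Fixed, permeabilized cells were stained against Flag or GAL4 tags, and condensate puncta were quantified from 50 random fields per well.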
Consider B1, for which the “Z score of condensed fraction” value was -0.3654.

As to B2, the “Z score of condensed fraction” value is given as -0.4637.

Regarding B3, the “Z score of condensed fraction” value came to 0.03488.

B4: the “Z score of condensed fraction” value turned out to be 2.906.

Take B5: the “Z score of condensed fraction” value stood at 1.061.

As for B6, the “Z score of condensed fraction” value is given as -1.083.

For the molecule B7, the “Z score of condensed fraction” value is reported as -0.7014.

Regarding B8, the “Z score of condensed fraction” value was 0.5955.
